Measured values as given in patent US20040087498A1, “Modified factor VII” (Novo Nordisk Health Care AG, priority 1991, published 2004).
Where “and” joins values, the source holds several entries; their conditions need not be identical. Equal values may be shown once.

Test: ELISA for DEGR-FVIIa in rabbit plasma
Assay type: in vivo
Details: for FVIIa ELISA, DEGR-FVIIa in rabbit plasma, individual animals: listed as DEGR-FVIIa
Description: The test drug delivery for the animals consisted of an initial bolus injection immediately prior to balloon angioplasty, followed by a continuous systemic infusion by osmotic pump via the internal jugular vein. The duration of the drug infusion was 3 days. The control animals received heparin, 150 U/kg IV bolus, prior to balloon angioplasty followed by saline infusion. The DEGR-FVIIa treated animals received a 1 mg/kg bolus injection followed by 50 μg/kg/hr infusion.
Prothrombin time and concentration of DEGR-FVIIa in the blood were determined at immediately pre-bolus injection of the test compound, 1 hr post bolus injection, and at 3 days at the end of continuous infusion. One to two mls of citrated plasma was obtained and the prothrombin times and antigen levels determined.
An ELISA assay was used to determine the concentration of DEGR-FVIIa in plasma samples from the control and DEGR-FVIIa treated rabbits. The assay involved first diluting an anti-human FVII monoclonal antibody (Dr. W. Kisiel, U. of New Mexico) to 2.0 μg/ml in 0.1 M carbonate buffer pH 9.6, and adding 100 μl/well to 96-well plates. The plates were then incubated at 4° C. overnight and subsequently washed two times using wash buffer (PBS, pH 7.4, containing 0.05% Tween 20).
After blocking, a standard dilution series of DEGR-FVIIa ranging from 20-0.027 ng/ml was added, along with a dilution series of the test rabbit plasma (1:100 to 1:4000 in blocking buffer) applied at 100 μl/well. Non-immune rabbit plasma was used as a negative control. Plates were then incubated for 1 hr at 37° C. followed by four washes with wash buffer.
DEGR-FVIIa was detected by adding 100 μl/well of a 1:1,000 dilution of rabbit anti-human FVII polyclonal antibody (Dr. Kisiel, U. New Mexico) in blocking buffer. Plates were incubated for 1 hr at 37° C., followed by five washes with wash buffer. Specific antibody binding was detected using 100 μl/well of a 1:2,000 dilution of goat anti-rabbit IgG antibody-peroxidase conjugate (Tago, Inc.). Plates were incubated for 1 hr at 37° C. and washed six times with wash buffer. Finally, 100 μl of substrate solution was added (0.42 mg/ml of o-phenylenediamine dihydrochloride [OPD] in 0.2 M citrate buffer, pH 5.0, containing 0.3% H2O2). After 1-3 min at room temp. the color reaction was stopped by adding 100 μl/well of 1N H2SO4 and the plates were read at 490 nm on a Microplate spectrophotometer. The concentration of DEGR-FVIIa in the plasma samples was determined by comparing the A490 values of the unknown to those of the DEGR-FVIIa standard curve.

Substance: DEGR-Factor VIIa: Recombinant human Factor VIIa with its active site derivatized by Dansyl-L-Glu-Gly-Arg-chloromethyl Ketone (DEGRck)
- FVIIa ELISA, DEGR-FVIIa in rabbit plasma, individual animals (1 hour after 1 mg/kg bolus, 50 μg/kg/hr infusion): 3,210 ng/ml and 4,950 ng/ml and 4,543 ng/ml and 4,900 ng/ml and 4,600 ng/ml and 2,145 ng/ml and 2,830 ng/ml
- FVIIa ELISA, DEGR-FVIIa in rabbit plasma, individual animals (3 days, end of 50 μg/kg/hr infusion): 102 ng/mL and 7 ng/mL and 661 ng/mL and 117 ng/mL and 502 ng/mL and 212 ng/mL and 228 ng/mL
- FVIIa ELISA, DEGR-FVIIa in rabbit plasma, individual animals (Pretreatment): 0 ng/ml and 1 ng/ml and 13 ng/ml (2×) and 65 ng/ml and 4 ng/ml and 9 ng/ml
- DEGR-FVIIa antigen level in the plasma (rabbit, 1 hr time point, range over animals): 2 to 6 µg/mL
